Values of other authors, collected in US8759488B2, “High stability streptavidin mutant proteins” (Isis Innovation Limited, priority 2009, dated 2014).
Several values for one entry are separate records, joined by “and”; a condition that tells them apart may be missing. Identical values can stand only once.

B1: monomeric streptavidin: streptavidin subunit unable to tetramerise, e.g. with mutations T76R, V125R, V55T and L109T (protein)
chain: DPSKDSKAQVSAAEAGITGTWYNQLGSTFIVTAGADGALTGTYESAVGNAESRYTLTGRYDSAPATDGSGTALGWRVAWKNNYRNAHSATTWSGQYVGGAEARINTQWTLTSGTTEANAWKSTLRGHDTFTKVKPSAASIDAAKKAGVNNGNPLDAVQQ
half life for biotin (biotin): approximately 3 minutes | off rate of biotin (free biotin): 0.0034 s⁻¹ and 0.0041 s⁻¹
